{"source": "patent US10870693B2", "about": "“Therapeutic combination and methods of treatment with a DLL4 antagonist and an anti-hypertensive agent” (OncoMed Pharmaceuticals, Inc., priority 2009, dated 2020)", "key": {"[1]": {"test": "Phase 1 study of OMP-21M18: blood pressure readings and anti-hypertensive treatment of individual subjects", "quoted_text": "For study days in which an infusion of OMP-21M18 was administered, blood pressure readings include a reading pre-infusion, 15 minutes after the start of infusion, at the end of infusion, and 15 minutes post-infusion.\nOMP-21M18 was administered at dosages of 0.5 mg/kg weekly to three subjects, 1.0 mg/kg weekly to three subjects, 2.5 mg/kg every two weeks to six subjects, 2.5 mg/kg weekly to six subjects, 5.0 mg/kg every two weeks to six subjects, 5.0 mg/kg weekly to three subjects, and 10.0 mg/kg every two weeks to six subjects. According to the study protocol, the administration period was nine weeks, unless a subject was removed from the study due to a dose limiting toxicity. Baseline blood pressure readings were taken just prior to administration of the first dosage. Toxicities were assessed using the National Institute of Health's Common Toxicity Criteria for Adverse Events (CTCAE) version 3.0. During the study, subjects were assessed for dose limiting toxicities from the time of the first dose through 7 days after administration of the fourth dose (Days 0-28)."}, "[2]": {"test": "Phase 1 dose escalation study of OMP-21M18 in subjects with solid tumors: incidence of hypertension (CTCAE v3.0)", "type": "in vivo", "conditions": "for Grade 3 Hypertension / Grade 4 Hypertension: number of patients", "procedure": "Thirty-three subjects with advanced solid tumors initiated treatment with OMP-21M18 in a Phase I clinical trial. The trial was designed to determine the maximum tolerated dose (MTD), safety, pharmacokinetics, immunogenicity, and preliminary efficacy of OMP-21M18 in subjects with advanced solid tumors. All subjects had histologically confirmed malignancies that were metastatic or unresectable and had received extensive treatment for their cancer.\nOMP-21M18 was prepared for use at a concentration of 10 mg/mL in a solution of 50 mM histidine, 100 mM sodium chloride, 45 mM sucrose, and 0.01% (w/v) Polysorbate 20, with the pH adjusted to 6.0. Once prepared, OMP-21M18 was stored as 20 mL aliquots in 25-cc vials."}, "[3]": {"conditions": "Subject 1 on OMP-21M18 0.5 mg/kg weekly, Lotensin, Norvasc and hydrochlorothiazide together"}, "[4]": {"conditions": "Subject 2 on OMP-21M18 1 mg/kg, labetalol 400 bid, lasix 20 mg qd, Norvasc 10 mg qd, Prinzide 20/25 mg together, 7 additional OMP-21M18 doses without hypertension"}, "[5]": {"conditions": "2.5 mg/kg every 2 weeks, 6 patients"}, "[6]": {"conditions": "5.0 mg/kg every 2 weeks, 6 patients"}, "[7]": {"conditions": "10.0 mg/kg every 2 weeks, 6 patients, one patient had both Grade 3 and Grade 4"}}, "note": "Counter-ions that a name gives are not always drawn."}
{"molecule": "NS(=O)(=O)c1cc2c(cc1Cl)NCNS2(=O)=O", "note": "[hydrochlorothiazide, reference compound]", "values": [{"measurement": "blood pressure control by anti-hypertensive regimen", "setting": "[1]; [3]", "value": "adequate blood pressure control"}]}
{"molecule": "NS(=O)(=O)c1cc(C(=O)O)c(NCc2ccco2)cc1Cl", "note": "[lasix, reference compound]", "values": [{"measurement": "blood pressure control by anti-hypertensive regimen", "setting": "[1]; [4]", "value": "controlled their blood pressure"}]}
{"molecule": "CCOC(=O)C1=C(COCCN)NC(C)=C(C(=O)OC)C1c1ccccc1Cl", "note": "(centres unmarked) [Norvasc®, amlodipine besylate, reference compound]", "values": [{"measurement": "blood pressure control by anti-hypertensive regimen", "setting": "[1]; [3]", "value": "adequate blood pressure control"}, {"measurement": "blood pressure control by anti-hypertensive regimen", "setting": "[1]; [4]", "value": "controlled their blood pressure"}, {"measurement": "adverse event leading to discontinuation of anti-hypertensive", "setting": "[1]; Subject 3 on OMP-21M18 2.5 mg/kg, Norvasc 5 mg qd, discontinued Day 141", "value": "ankle edema"}]}
{"molecule": "CC(CCc1ccccc1)NCC(O)c1ccc(O)c(C(N)=O)c1", "note": "(centres unmarked) [labetalol, reference compound]", "values": [{"measurement": "blood pressure control by anti-hypertensive regimen", "setting": "[1]; [4]", "value": "controlled their blood pressure"}]}
{"molecule": "CCOC(=O)[C@H](CCc1ccccc1)N[C@H]1CCc2ccccc2N(CC(=O)O)C1=O", "note": "[Lotensin®, benazepril hydrochloride, reference compound]", "values": [{"measurement": "blood pressure control by anti-hypertensive regimen", "setting": "[1]; [3]", "value": "adequate blood pressure control"}]}
{"molecule": "OMP-21M18: humanized anti-DLL4 antibody encoded by the plasmid with ATCC deposit number PTA-8425 (antibody, V domains shown, Heavy chain variable region, H7; Light chain variable region) VH: QVQLVQSGAEVKKPGASVKISCKASGYSFTAYYIHWVKQAPGQGLEWIGYISSYNGATNYNQKFKGRVTFTTDTSTSTAYMELRSLRSDDTAVYYCARDYDYDVGMDYWGQGTLVTVSS VL: DIVMTQSPDSLAVSLGERATISCRASESVDNYGISFMKWFQQKPGQPPKLLIYAASNQGSGVPDRFSGSGSGTDFTLTISSLQAEDVAVYYCQQSKEVPWTFGGGTKVEIK", "values": [{"measurement": "Total Incidence of Hypertension", "setting": "[2]; 0.5 mg/kg weekly, 3 patients", "value": "1/3"}, {"measurement": "Grade 3 Hypertension", "setting": "[2]; 0.5 mg/kg weekly, 3 patients", "value": 1}, {"measurement": "Grade 4 Hypertension", "setting": "[2]; 0.5 mg/kg weekly, 3 patients", "value": 0}, {"measurement": "Total Incidence of Hypertension", "setting": "[2]; 1.0 mg/kg weekly, 3 patients", "value": "1/3"}, {"measurement": "Grade 3 Hypertension", "setting": "[2]; 1.0 mg/kg weekly, 3 patients", "value": 1}, {"measurement": "Grade 4 Hypertension", "setting": "[2]; 1.0 mg/kg weekly, 3 patients", "value": 0}, {"measurement": "Total Incidence of Hypertension", "setting": "[2]; [5]", "value": "1/6"}, {"measurement": "Grade 3 Hypertension", "setting": "[2]; [5]", "value": 1}, {"measurement": "Grade 4 Hypertension", "setting": "[2]; [5]", "value": 0}, {"measurement": "Total Incidence of Hypertension", "setting": "[2]; 2.5 mg/kg weekly, 6 patients", "value": "2/6"}, {"measurement": "Grade 3 Hypertension", "setting": "[2]; 2.5 mg/kg weekly, 6 patients", "value": 2}, {"measurement": "Grade 4 Hypertension", "setting": "[2]; 2.5 mg/kg weekly, 6 patients", "value": 0}, {"measurement": "Total Incidence of Hypertension", "setting": "[2]; [6]", "value": "1/3"}, {"measurement": "Grade 3 Hypertension", "setting": "[2]; [6]", "value": 1}, {"measurement": "Grade 4 Hypertension", "setting": "[2]; [6]", "value": 0}, {"measurement": "Total Incidence of Hypertension", "setting": "[2]; 5.0 mg/kg weekly, 3 patients", "value": "0/3"}, {"measurement": "Grade 3 Hypertension", "setting": "[2]; 5.0 mg/kg weekly, 3 patients", "value": 0}, {"measurement": "Grade 4 Hypertension", "setting": "[2]; 5.0 mg/kg weekly, 3 patients", "value": 0}, {"measurement": "subjects who experienced Grade 3 or Grade 4 hypertension", "setting": "[2]; 10.0 mg/kg dose level", "value": "6 of 6"}, {"measurement": "Total Incidence of Hypertension", "setting": "[2]; 10.0 mg/kg every 2 weeks, 6 patients", "value": "6/6"}, {"measurement": "Grade 3 Hypertension", "setting": "[2]; [7]", "value": 6}, {"measurement": "Grade 4 Hypertension", "setting": "[2]; [7]", "value": 1}, {"measurement": "subjects whose hypertension was labeled grade three", "setting": "[2]; of the twelve subjects with hypertension, asymptomatic, controlled with oral anti-hypertensive, treatment continued", "value": "eleven"}, {"measurement": "subjects for whom hypertension was reported during the course of therapy", "setting": "[2]; of thirty-three subjects, all dose cohorts", "value": "twelve"}, {"measurement": "patients with hypertension reported", "setting": "[2]; thirty-three subjects, all dose cohorts", "value": 36, "unit": "%"}, {"measurement": "blood pressure, highest reported", "setting": "[1]; Subject 1, 0.5 mg/kg weekly, Day 21, 15 minutes post infusion, baseline 135/73, on Lotensin 30 mg qd", "value": "199/92"}, {"measurement": "blood pressure", "setting": "[1]; Subject 1, 0.5 mg/kg weekly, Day 24, baseline 135/73, on Lotensin 30 mg qd", "value": "183/89"}, {"measurement": "blood pressure", "setting": "[1]; Subject 1, 0.5 mg/kg weekly, Day 32, on Lotensin 40 mg qd and Norvasc 5 mg qd", "value": "177/88"}, {"measurement": "blood pressure", "setting": "[1]; Subject 1, 0.5 mg/kg weekly, Day 41, on Lotensin 40 mg qd and Norvasc 10 mg qd", "value": "160/85"}, {"measurement": "blood pressure", "setting": "[1]; Subject 2, 1 mg/kg weekly, Day 7 (high), baseline 141/85, on lisinopril 10 mg qd", "value": "177/93"}, {"measurement": "blood pressure", "setting": "[1]; Subject 2, 1 mg/kg weekly, Day 14, on lisinopril plus irbesartan/hydrochlorothiazide, study drug dose not administered", "value": "173/110"}, {"measurement": "blood pressure", "setting": "[1]; Subject 2, 1 mg/kg weekly, Day 21, on labetalol 100 mg bid and Prinzide 10/12.5 qd", "value": "164/112"}, {"measurement": "blood pressure", "setting": "[1]; Subject 2, 1 mg/kg weekly, Day 55, on labetalol 400 mg bid and Prinzide 10/12.5 qd", "value": "163/91"}, {"measurement": "blood pressure", "setting": "[1]; Subject 2, 1 mg/kg, Day 84, on labetalol 400 mg bid and Prinzide 20/25 qd, OMP-21M18 dose not administered", "value": "167/102"}, {"measurement": "blood pressure", "setting": "[1]; Subject 3, 2.5 mg/kg weekly, Day 21, baseline 96/54, no prior history of hypertension", "value": "159/90"}, {"measurement": "blood pressure", "setting": "[1]; Subject 3, 2.5 mg/kg, Day 112, on Dyazide 1 po qd", "value": "152/77"}, {"measurement": "blood pressure", "setting": "[1]; Subject 3, 2.5 mg/kg, Day 146, on lisinopril 20 mg bid", "value": "143/85"}, {"measurement": "blood pressure", "setting": "[1]; Subject 4, 2.5 mg/kg cohort, Day 14, baseline 118/73, on dyazide and lisinopril, increase not related to study drug according to the Investigator", "value": "153/79"}, {"measurement": "blood pressure", "setting": "[1]; Subject 5, 10 mg/kg once every other week, Day 9, baseline 130/90", "value": "160/90"}, {"measurement": "blood pressure", "setting": "[1]; Subject 5, 10 mg/kg once every other week, Day 26, at home, on lisinopril 5 mg qd", "value": "170/90"}, {"measurement": "blood pressure", "setting": "[1]; Subject 5, 10 mg/kg once every other week, Day 62, on lisinopril 10 mg bid", "value": "190/120"}, {"measurement": "blood pressure", "setting": "[1]; Subject 5, 10 mg/kg once every other week, Day 65, on lozartan 25 mg, bisoprolol 2.5 mg, amlodipine 5 mg qd", "value": "170/106"}, {"measurement": "blood pressure", "setting": "[1]; Subject 6, 10 mg/kg cohort, Day 28, single reading, on enalapril", "value": "150/90"}, {"measurement": "blood pressure", "setting": "[1]; Subject 6, 10 mg/kg cohort, subsequent reading after Day 28, on enalapril", "value": "150/90"}, {"measurement": "blood pressure", "setting": "[1]; Subject 6, 10 mg/kg cohort, subsequent to start of enalapril 10 mg bid on Day 9, baseline 125/90", "value": "140/90"}, {"measurement": "blood pressure", "setting": "[1]; Subject 7, 10 mg/kg once every other week, Day 9, baseline 135/90, on enalapril 5 mg bid", "value": "170/90"}, {"measurement": "blood pressure", "setting": "[1]; Subject 7, 10 mg/kg once every other week, Day 56, on enalapril 10 mg bid", "value": "155/90"}, {"measurement": "blood pressure", "setting": "[1]; Subject 8, 10 mg/kg once every other week, Day 17, home reading, baseline 140/90, captopril 25 mg as needed", "value": "160/90"}, {"measurement": "blood pressure", "setting": "[1]; Subject 8, 10 mg/kg once every other week, Day 22, in the clinic, on captopril 12.5 qd", "value": "130/80"}, {"measurement": "blood pressure", "setting": "[1]; Subject 8, 10 mg/kg once every other week, Days 23-28, at home, on captopril 12.5 qd", "value": "150/90"}, {"measurement": "blood pressure", "setting": "[1]; Subject 9, 10 mg/kg once every other week, Day 7, on nifedipine 20 mg qd", "value": "130/80"}, {"measurement": "blood pressure", "setting": "[1]; Subject 9, 10 mg/kg once every other week, Day 74, on nifedipine 20 mg qd, then discontinued", "value": "115/75"}]}
